The target of this assay is ACE2-Fc (UniProt Q9BYF1). Description: SPR. A general note: SPR reads the build-up and loss of mass on a sensor chip optically.

The values that follow come from doi:10.1101/2022.05.21.492554.

Chain of ACE2-Fc (Q9BYF1 18-740): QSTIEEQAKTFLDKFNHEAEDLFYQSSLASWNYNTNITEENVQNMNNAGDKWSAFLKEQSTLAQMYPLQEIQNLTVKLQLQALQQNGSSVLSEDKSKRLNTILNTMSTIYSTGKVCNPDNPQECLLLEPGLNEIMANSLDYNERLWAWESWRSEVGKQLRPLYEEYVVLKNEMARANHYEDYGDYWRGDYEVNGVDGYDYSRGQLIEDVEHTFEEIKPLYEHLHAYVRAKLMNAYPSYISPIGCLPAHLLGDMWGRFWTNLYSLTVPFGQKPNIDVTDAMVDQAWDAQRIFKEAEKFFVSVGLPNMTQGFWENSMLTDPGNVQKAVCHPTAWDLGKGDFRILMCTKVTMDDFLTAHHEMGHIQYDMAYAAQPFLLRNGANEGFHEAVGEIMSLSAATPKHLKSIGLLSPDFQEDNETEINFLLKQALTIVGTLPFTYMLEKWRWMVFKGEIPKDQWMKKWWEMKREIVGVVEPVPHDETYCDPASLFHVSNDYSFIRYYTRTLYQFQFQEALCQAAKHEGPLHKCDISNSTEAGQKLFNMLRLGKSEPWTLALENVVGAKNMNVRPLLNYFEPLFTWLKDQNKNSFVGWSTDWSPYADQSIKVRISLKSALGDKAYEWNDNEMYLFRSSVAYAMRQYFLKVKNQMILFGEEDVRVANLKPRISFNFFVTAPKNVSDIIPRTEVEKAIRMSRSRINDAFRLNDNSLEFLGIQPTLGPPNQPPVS

As a reminder, the Kd is the concentration at which binding is half-saturated. A low value points to a tighter complex. As usually defined, the koff is the rate constant with which the complex falls apart. Substance Wuhan RBD showed a Kd of 7.3 nM and a koff of 0.0051 s⁻¹.
